Source: paper PMC1974823

Biological target: T1, rFimR (Porphyromonas gingivalis (ATCC 33277?)) (UniProt B2RJ77)
T1 sequence: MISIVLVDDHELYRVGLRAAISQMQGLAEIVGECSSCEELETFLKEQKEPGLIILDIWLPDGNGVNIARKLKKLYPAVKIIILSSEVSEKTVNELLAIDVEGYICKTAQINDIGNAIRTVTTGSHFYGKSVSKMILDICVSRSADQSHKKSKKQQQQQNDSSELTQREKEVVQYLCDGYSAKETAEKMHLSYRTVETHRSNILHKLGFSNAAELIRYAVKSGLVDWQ
Experiment: EMSA

Sequence	binding
CAGATGGGTTGTTGCTCAAGGAGAACGTCGCCAATACCTAAGCAAGAAAAGAGGAACTGTTCCAGAAAATACTTGGGTTACTCCGGGTTCTGGTTTCGTTCCTACCAGCAGCACTTTCTAT (double strand) [mfa1 coding region (121 bp)]	no binding
TGTAACGGGTTCTGCCTCGTTGTCTTTGTTACAAGCTGTCATAGCAAGAGCAGCAAGTCCCAACAAGAAAAACTTTGTTTTTTTCATCTCGTTTTTGTTTTAAAAGTGAATATTGTTTTCTAAAAATCTAATCTTTTCCCATTTAGAGATTGTCTTGCATATAGCGTCG (double strand) [fimA promoter (176 bp)]	no binding
